B1: IRL41 (receptor)
CRIg variant: RPILEVPESVTGPWKGDVNLPCTYDPLQGYTQVLVKWLVQRGSDPVTIFLRDSSGDHIQIAKYRGRLHVSHKVPGDVSLQLSTLEYDDRSHYTCEVTWQTPDGNQVVRDKITELRVQKHSSKLLKTKTEAPTTMTYPLKATSTVKQSWDWTTDMDGYLGETSAGPGKSLP
notes: also called RIL41; RIL 41
B2: IRL24 (receptor)
CRIg variant: B1 CRIg variant with G42D, D44H, P45F, Y86M
notes: the mutation string is cut off at the cell border on the sheet; also called Q60I/Q64R/G42D/D44H/P45F
B3: IRL52 (receptor)
CRIg variant: B1 CRIg variant with Y86M, Q105K
notes: also called Q60I-Q64R/Q105K
B4: YL24 (receptor)
CRIg variant: B1 CRIg variant with G42D, D44H, P45F, I60Q, R64Q
notes: also called M86Y/G42D/D44H/P45F
B5: IRL51 (receptor)
CRIg variant: B1 CRIg variant with Y86M, Q105R
notes: also called Q60I-Q64R/Q105R
B6: IRL55 or IRL56 (last digit not sure) (receptor)
CRIg variant: B1 CRIg variant with Y86M, K110N
notes: row between IRL52 and IRL59; also called Q60I-Q64R/K110N
B7: YL59 (receptor)
CRIg variant: B1 CRIg variant with I60Q, R64Q, Q105R, K110N
notes: also called M86Y/Q105R/K110N
B8: IRL11 (receptor)
CRIg variant: RPILEVPYSVTGPWKGDVNLPCTYDPLQGYTQVLVKWLVQRGSDPVTIFLRDSSGDHIQIAKYRGRLHVSHKVPGDVSLQLSTLEMDDRSHYTCEVTWQTPDGNQVVRDKITELRVQKHSSKLLKTKTEAPTTMTYPLKATSTVKQSWDWTTDMDGYLGETSAGPGK
notes: also called Q60I-Q64R/E8Y
B9: L24 (receptor)
CRIg variant: B8 CRIg variant with Y8E, G42D, D44H, P45F, I60Q, R64Q
notes: also called G42D/D44H/P45F (printed G42D/D44/H/P45F)
B10: IRL23 (receptor)
CRIg variant: B8 CRIg variant with Y8E, P45F
notes: also called Q60I-Q64R/P45F
B11: RL59 (receptor)
CRIg variant: B8 CRIg variant with Y8E, I60Q, Q105R, K110N
notes: also called Q64R/Q105R/K110N
B12: IRL21 (receptor)
CRIg variant: B8 CRIg variant with Y8E, G42D
notes: also called Q60I-Q64R/G42D

Where a chain is given by its changes, count along the chain named. Names and notes keep the numbering of the source.

T1 sequence (P01024 23-667 limits assumed, chain 1 of 2): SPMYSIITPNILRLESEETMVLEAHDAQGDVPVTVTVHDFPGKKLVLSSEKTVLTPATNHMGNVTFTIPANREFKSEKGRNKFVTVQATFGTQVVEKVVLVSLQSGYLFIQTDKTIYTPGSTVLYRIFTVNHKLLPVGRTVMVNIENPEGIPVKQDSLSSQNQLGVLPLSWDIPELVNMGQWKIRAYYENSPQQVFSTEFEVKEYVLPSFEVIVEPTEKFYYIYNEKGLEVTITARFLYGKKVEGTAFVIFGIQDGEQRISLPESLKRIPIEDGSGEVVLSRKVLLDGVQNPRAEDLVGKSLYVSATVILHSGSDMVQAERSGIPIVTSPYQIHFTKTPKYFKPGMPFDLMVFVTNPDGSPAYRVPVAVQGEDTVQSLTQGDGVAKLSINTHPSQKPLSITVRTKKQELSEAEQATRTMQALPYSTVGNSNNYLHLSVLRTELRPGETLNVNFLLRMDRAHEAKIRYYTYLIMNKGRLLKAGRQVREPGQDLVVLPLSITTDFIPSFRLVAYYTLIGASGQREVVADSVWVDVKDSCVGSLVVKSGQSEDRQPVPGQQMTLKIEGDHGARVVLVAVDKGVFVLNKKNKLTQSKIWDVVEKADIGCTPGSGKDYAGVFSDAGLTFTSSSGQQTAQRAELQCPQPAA
T1 sequence (P01024 749-1663 limits assumed, chain 2 of 2): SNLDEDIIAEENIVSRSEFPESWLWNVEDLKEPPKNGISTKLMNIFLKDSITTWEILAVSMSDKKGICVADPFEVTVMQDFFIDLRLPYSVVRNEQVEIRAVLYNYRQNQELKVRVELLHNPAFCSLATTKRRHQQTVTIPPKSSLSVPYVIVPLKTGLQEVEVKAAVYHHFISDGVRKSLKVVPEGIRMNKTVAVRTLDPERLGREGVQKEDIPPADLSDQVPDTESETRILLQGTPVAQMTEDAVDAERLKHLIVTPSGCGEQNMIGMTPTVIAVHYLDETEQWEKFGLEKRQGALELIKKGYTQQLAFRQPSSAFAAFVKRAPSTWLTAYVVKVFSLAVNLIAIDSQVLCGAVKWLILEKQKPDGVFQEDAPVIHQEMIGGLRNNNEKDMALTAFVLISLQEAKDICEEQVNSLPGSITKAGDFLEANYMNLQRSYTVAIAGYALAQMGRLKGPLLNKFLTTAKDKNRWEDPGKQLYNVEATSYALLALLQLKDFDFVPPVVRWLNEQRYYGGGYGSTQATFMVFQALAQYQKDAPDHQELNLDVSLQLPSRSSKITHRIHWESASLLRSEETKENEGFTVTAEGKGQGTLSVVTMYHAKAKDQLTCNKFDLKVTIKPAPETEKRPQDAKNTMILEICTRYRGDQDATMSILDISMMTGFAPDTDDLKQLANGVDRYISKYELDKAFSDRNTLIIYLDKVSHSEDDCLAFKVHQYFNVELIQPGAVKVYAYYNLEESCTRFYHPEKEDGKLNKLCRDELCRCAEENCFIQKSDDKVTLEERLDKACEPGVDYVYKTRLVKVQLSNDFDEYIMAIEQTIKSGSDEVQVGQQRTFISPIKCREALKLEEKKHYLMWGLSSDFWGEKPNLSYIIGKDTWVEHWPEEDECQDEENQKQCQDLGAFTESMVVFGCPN

The first assay addresses T1, C3b (human, UniProt P01024 23-667; P01024 749-1663).
T1 construct: also called soluble C3b; human C3b
The assay is described as follows: competitive ELISA (competitive displacement of C3b); format of paragraph 183: variant in solution competes with coated huCRIg(L)-LFH for C3b. As to the method:
huCRIg(L)-LFH was diluted to 2μg/mL in PBS, pH 7.4, and coated onto Maxisorp 384-well flat bottom plates (Nunc, Neptune, NJ) by incubating overnight (16-18 hr) at 4° C. (25 ul/well). The plates were washed 3 times in Wash Buffer (PBS, pH7.4, 0.05% Tween 20), and 50 ul/well of Block Buffer (PBS, pH 7.4, 0.5% BSA) was added to each well. The plates were allowed to block for 1-3hr; this and all subsequent incubations were performed on an orbital shaker at room temperature. During the blocking step, C3b (purified at Genentech) was diluted to 20 nM in Assay Buffer (PBS pH7.4, 0.5% BSA, 0.05% Tween-20), and the mutCRlg-huFc molecules were serially diluted in Assay Buffer, over a concentration range of 20,000—0.34 nM. The C3b and mutCRlg-huFc molecules were then mixed 1:1 and allowed to pre-incubate for 0.5-1 hr. The blocked plates were washed three times (as described above), and the C3b:mutCRlg-huFc complexes were added to the reaction plates (25 ul/well). After a 1-2 hr incubation, The ELISA plates were washed three times, (as described above) and plate-bound C3b was detected by the addition of an anti-human C3b antibody (clone 5F202, US Biological, Swampscott, Mass.; 600 ng/mL, 25 ul/well). The plates were incubated for 1-2 hr and washed as described above. […] Absorbance at 450 nm and 650 nm was determined using a SpectraMax 250 microtiter plate reader (Molecular Devices, Sunnyvale, Calif.).
Turning to B1, the “IC50 (read off the curve)” value is about 10 nM.

A further assay concerns the target T1, C3b. The assay is described as follows: competitive ELISA, column 'Mu Ic50 (nM)'; format of paragraph 183: variant in solution competes with coated huCRIg(L)-LFH for C3b. The method, then:
huCRIg(L)-LFH was diluted to 2μg/mL in PBS, pH 7.4, and coated onto Maxisorp 384-well flat bottom plates (Nunc, Neptune, NJ) by incubating overnight (16-18 hr) at 4° C. (25 ul/well). The plates were washed 3 times in Wash Buffer (PBS, pH7.4, 0.05% Tween 20), and 50 ul/well of Block Buffer (PBS, pH 7.4, 0.5% BSA) was added to each well. The plates were allowed to block for 1-3hr; this and all subsequent incubations were performed on an orbital shaker at room temperature. During the blocking step, C3b (purified at Genentech) was diluted to 20 nM in Assay Buffer (PBS pH7.4, 0.5% BSA, 0.05% Tween-20), and the mutCRlg-huFc molecules were serially diluted in Assay Buffer, over a concentration range of 20,000—0.34 nM. The C3b and mutCRlg-huFc molecules were then mixed 1:1 and allowed to pre-incubate for 0.5-1 hr. The blocked plates were washed three times (as described above), and the C3b:mutCRlg-huFc complexes were added to the reaction plates (25 ul/well). After a 1-2 hr incubation, The ELISA plates were washed three times, (as described above) and plate-bound C3b was detected by the addition of an anti-human C3b antibody (clone 5F202, US Biological, Swampscott, Mass.; 600 ng/mL, 25 ul/well). The plates were incubated for 1-2 hr and washed as described above. HRP-conjugated anti-murine Fc IgG (Jackson ImmunoResearch, West Grove, Pa.) diluted 1:2,000 was then added (25 ul/well), and the plates were incubated for 1-2 hr. After a final wash, 25 ul/well of TMB substrate (Kirkegaard & Perry Laboratories, Gaithersburg, Md.) was added to the ELISA plates. Color development was stopped after approximately 8min by adding 25 ul/well 1.0M phosphoric acid. Absorbance at 450 nm and 650 nm was determined using a SpectraMax 250 microtiter plate reader (Molecular Devices, Sunnyvale, Calif.).
As for B2, the IC50 turned out to be 4 nM.

In turn, B3 came in with a half-maximal inhibitory concentration (IC50) of 22 nM.

For the molecule B4, the half-maximal inhibitory concentration (IC50) came out at 31 nM.

The molecule B5 had a 50% inhibitory concentration (IC50) of 24 nM.

The molecule B1 showed a half-maximal inhibitory concentration (IC50) of 10 nM.

B6 displayed an IC50 of 33 nM.

On to B7, for which the IC50 worked out at 18 nM.

In turn, B8 returned a 50% inhibitory concentration (IC50) of 34 nM.

On to B9, for which the IC50 came out at 238 nM.

The molecule B10 returned an IC50 of 31 nM.

The molecule B11 had an IC50 of 65 nM.

On to B12, for which the IC50 stood at 29 nM.

The record behind these values is patent publication US20160008427A1 (Genentech, published 2016).
